Test results taken from the Human Domainome abundance scans (Beltran et al. 2025).
± gives the uncertainty stated by the source.

B1: Bromodomain adjacent to zinc finger domain protein 2B, residues 1927 to 1982; numbered along this chain, Q9UIF8 (parent)
chain: KSIMKVYCQICRKGDNEELLLLCDGCDKGCHTYCHRPKITTIPDGDWFCPACIAKA
B2: E3 ubiquitin-protein ligase TRIM36, residues 208 to 252; numbered along this chain, Q9NQ86 (parent)
chain: KILMCPEHETERINMYCELCRRPVCHLCKLGGNHANHRVTTMSSA

Variants of: B1
Experiment: abundance fitness (aPCA) (normalised: wild type 0, dead -1); higher = more abundant; growth selection in yeast, the domain comes from the species named
Settings: Homo sapiens

Variant	abundance fitness
D24S	0.053 ± 0.089
D24P	-0.05 ± 0.11
C49N	-0.816 ± 0.24
T41M	-0.108 ± 0.12
M4N	-0.169 ± 0.16
M4P	-0.183 ± 0.13
M4C	-0.054 ± 0.12
C8H	-1.02 ± 0.24
L19Q	0.137 ± 0.17
L19D	-0.138 ± 0.13
G29M	-0.279 ± 0.12
G29N	-0.013 ± 0.16
C52A	-0.661 ± 0.11
S2C	-0.181 ± 0.14
S2G	0.065 ± 0.097
C26L	-0.819 ± 0.088
C26G	-0.572 ± 0.076
C26K	-0.744 ± 0.14
A54L	0.032 ± 0.089
A54P	0.048 ± 0.1
C30I	0.15 ± 0.14
C30V	-0.071 ± 0.074
A56T	-0.155 ± 0.16

Variant	abundance fitness
K38L	0.015 ± 0.077
K38R	-0.122 ± 0.074
C11L	-1.01 ± 0.1
C11R	-0.933 ± 0.081
C11A	-1.03 ± 0.088
I53P	0.118 ± 0.15
D27V	-0.222 ± 0.084
F48R	0 ± 0.069
F48G	-0.06 ± 0.069
F48Y	0.039 ± 0.16
Y7A	-0.09 ± 0.073
T40S	-0.131 ± 0.079
Q9R	-0.195 ± 0.063
Q9S	0.07 ± 0.072
I39C	0.011 ± 0.12
I39S	-0.087 ± 0.081
D46N	-0.009 ± 0.12
D46G	-0.031 ± 0.083
I10Y	-0.135 ± 0.2
I10K	-0.131 ± 0.13
L22V	-0.034 ± 0.085
L22T	-0.024 ± 0.12
L22G	-0.006 ± 0.072

Variant	abundance fitness
G45M	-0.371 ± 0.47
L21E	-0.336 ± 0.14
L21Y	-0.374 ± 0.11
L21G	-0.224 ± 0.083
H35A	0.021 ± 0.075
H35R	-0.137 ± 0.073
D15F	-0.118 ± 0.36
R12G	-0.055 ± 0.063
T32I	0.004 ± 0.11
T32E	-0.27 ± 0.097
T32R	-0.078 ± 0.071
R36V	0.053 ± 0.07
R36H	0.021 ± 0.14
R36D	-0.03 ± 0.11
K5N	-0.035 ± 0.16
W47K	-0.127 ± 0.11
W47Y	-0.165 ± 0.19
E18G	-0.046 ± 0.092
E18R	-0.055 ± 0.074
P43M	-0.269 ± 0.17
H31K	-0.5 ± 0.13
H31A	-0.683 ± 0.083
H31V	-0.624 ± 0.073

Variants of: B2
Experiment: as above
Settings: Homo sapiens

Variant	abundance fitness
I13A	-0.015 ± 0.078
S44A	0.031 ± 0.048
S44I	-0.246 ± 0.074
S44N	-0.038 ± 0.07
S44P	0.034 ± 0.056
S44F	-0.263 ± 0.085
S44M	-0.138 ± 0.071
S44Q	-0.038 ± 0.069
S44H	-0.119 ± 0.067
S44L	-0.179 ± 0.054
K29W	-0.12 ± 0.07
K29Y	-0.012 ± 0.063
K29L	0.039 ± 0.055
K29C	-0.07 ± 0.074
